First the molecules themselves.
B1: 6His-Cdc24_(428-854) (domain or fragment)
chain: SSDDNNTKELEAALDISKNIARSINENQRRTENHQVVKKLYGRVVNWKGYRISKFGELLYFDKVFISTTNSSSEPEREFEVYLFEKIIILFSEVVTKKSASSLILKKKSSTSASISASNITDNNGSPHHSYHKRHSNSSSSNNIHLSSSSAAAIIHSSTNSSDNNSNNSSSSSLFKLSANEPKLDLRGRIMIMNLNQIIPQNNRSLNITWESIKEQGNFLLKFKNEETRDNWSSCLQQLIHDLKNEQFKARHHSSTSTTSSTAKSSSMMSPTTTMNTPNHHNSRQTHDSMASFSSSHMKRVSDVLPKRRTTSSSFESEIKSISENFKNSIPESSILFRISYNNNSNNTSSSEIFTLLVEKVWNFDDLIMAINSKISNTHNNNISPITKIKYQDEDGDFVVLGSDEDWNVAKEMLAENNEKFLNIRLY

One experiment addresses SNAP-tagged septin rods (yeast, UniProt P32458;P32468;P32457;P25342). The experiment can be described thus: SPR. (In SPR one partner is held on a chip, and binding of the other changes the refractive index at the surface.)
Experiment [1] addresses B1. Kind of experiment: SPR.
Experiment [2] addresses T1, 6His-Cdc24_(428-854) _(K801A) (yeast, UniProt P11433 428-854, K801A).
T1 sequence: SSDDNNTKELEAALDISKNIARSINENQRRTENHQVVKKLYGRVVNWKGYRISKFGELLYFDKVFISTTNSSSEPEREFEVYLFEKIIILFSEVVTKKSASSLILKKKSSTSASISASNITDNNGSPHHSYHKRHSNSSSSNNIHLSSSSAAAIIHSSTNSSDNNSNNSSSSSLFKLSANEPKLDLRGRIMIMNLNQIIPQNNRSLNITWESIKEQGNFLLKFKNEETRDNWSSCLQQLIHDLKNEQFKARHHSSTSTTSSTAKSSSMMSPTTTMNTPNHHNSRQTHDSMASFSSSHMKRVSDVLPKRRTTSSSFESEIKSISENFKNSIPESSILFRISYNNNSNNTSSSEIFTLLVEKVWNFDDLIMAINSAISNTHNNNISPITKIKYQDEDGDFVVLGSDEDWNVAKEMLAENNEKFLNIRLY
The experiment can be described thus: SPR.

The target in a further experiment is T2, Cdc24_(428-854) _(K525E) (yeast, UniProt P11433 428-854, K525E).
T2 sequence: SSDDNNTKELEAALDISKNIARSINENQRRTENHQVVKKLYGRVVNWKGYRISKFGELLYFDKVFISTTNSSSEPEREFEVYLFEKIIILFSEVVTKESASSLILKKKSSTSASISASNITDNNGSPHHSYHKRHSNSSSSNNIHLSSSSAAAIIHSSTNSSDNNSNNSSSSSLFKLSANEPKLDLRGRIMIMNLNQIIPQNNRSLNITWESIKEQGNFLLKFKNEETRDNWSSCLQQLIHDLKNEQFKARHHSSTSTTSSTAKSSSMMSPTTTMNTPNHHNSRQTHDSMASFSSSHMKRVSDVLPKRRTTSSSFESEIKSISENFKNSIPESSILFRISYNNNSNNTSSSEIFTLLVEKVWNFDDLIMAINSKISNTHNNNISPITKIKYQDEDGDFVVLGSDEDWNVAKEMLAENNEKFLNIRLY
The experiment can be described thus: SPR.

Experiment [3] has as its target T3, Cdc24_(428-854) _(K525E) _(K801A) (yeast, UniProt P11433 428-854, K525E | K801A).
T3 sequence: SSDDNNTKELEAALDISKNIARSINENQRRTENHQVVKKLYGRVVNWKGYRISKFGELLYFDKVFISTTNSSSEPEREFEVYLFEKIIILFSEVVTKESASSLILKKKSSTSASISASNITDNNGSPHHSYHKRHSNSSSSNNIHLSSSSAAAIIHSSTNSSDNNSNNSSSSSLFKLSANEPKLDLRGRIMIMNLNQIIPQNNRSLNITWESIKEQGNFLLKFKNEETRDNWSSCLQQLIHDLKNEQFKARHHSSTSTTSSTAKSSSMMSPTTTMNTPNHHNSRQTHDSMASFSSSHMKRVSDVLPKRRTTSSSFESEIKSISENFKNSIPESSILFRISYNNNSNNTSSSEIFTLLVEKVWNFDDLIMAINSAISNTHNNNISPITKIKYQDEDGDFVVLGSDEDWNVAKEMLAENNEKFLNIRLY
Kind of experiment: SPR.

In experiment [4] the target is B1. Kind of experiment: pull-down.

Chain of SNAP-tagged septin rods (P32468 whole entry, chain 2 of 3): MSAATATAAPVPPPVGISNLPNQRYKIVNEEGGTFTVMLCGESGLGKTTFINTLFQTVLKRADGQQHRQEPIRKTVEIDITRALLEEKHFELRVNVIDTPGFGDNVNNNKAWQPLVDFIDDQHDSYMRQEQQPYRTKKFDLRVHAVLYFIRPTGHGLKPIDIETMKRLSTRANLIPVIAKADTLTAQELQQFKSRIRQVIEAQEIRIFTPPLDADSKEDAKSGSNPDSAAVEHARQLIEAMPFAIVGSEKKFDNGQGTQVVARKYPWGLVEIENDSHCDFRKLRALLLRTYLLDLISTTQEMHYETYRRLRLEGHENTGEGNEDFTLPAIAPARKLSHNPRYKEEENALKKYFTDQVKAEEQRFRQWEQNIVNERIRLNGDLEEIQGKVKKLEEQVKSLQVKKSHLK
Chain of SNAP-tagged septin rods (P32457 whole entry, chain 3 of 3): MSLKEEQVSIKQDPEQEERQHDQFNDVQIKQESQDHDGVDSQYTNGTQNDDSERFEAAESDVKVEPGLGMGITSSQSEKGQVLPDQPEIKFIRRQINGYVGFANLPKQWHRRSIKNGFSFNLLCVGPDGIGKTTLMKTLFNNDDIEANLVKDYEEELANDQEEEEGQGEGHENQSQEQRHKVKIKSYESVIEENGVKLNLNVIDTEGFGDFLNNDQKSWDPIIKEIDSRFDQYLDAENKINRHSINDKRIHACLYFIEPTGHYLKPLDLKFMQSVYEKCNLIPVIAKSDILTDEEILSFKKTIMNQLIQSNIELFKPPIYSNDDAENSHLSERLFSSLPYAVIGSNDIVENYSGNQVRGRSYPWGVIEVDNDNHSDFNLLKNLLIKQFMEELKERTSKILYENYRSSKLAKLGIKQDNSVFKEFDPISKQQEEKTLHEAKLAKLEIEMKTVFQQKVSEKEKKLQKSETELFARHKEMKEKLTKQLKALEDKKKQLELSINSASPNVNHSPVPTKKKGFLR
Chain of SNAP-tagged septin rods (P25342 whole entry, chain 4 of 3): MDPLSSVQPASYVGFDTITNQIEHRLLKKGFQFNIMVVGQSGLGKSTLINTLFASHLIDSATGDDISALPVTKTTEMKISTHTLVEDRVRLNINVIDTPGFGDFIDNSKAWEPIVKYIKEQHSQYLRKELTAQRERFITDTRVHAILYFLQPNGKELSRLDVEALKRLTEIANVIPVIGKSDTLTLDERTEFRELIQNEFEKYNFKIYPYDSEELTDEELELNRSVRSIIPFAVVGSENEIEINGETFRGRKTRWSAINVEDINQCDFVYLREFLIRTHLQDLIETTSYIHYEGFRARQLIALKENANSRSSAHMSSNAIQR

Regarding B1, the dissociation constant Kd with SNAP-tagged septin rods was determined as 351 nM.

B2: 6His-Cdc11-SNAP (natural protein)
chain: MSGIIDASSALRKRKHLKRGITFTVMIVGQSGSGRSTFINTLCGQQVVDTSTTILLPTDTSTEIDLQLREETVELEDDEGVKIQLNIIDTPGFGDSLDNSPSFEIISDYIRHQYDEILLEESRVRRNPRFKDGRVHCCLYLINPTGHGLKEIDVEFIRQLGSLVNIIPVISKSDSLTRDELKLNKKLIMEDIDRWNLPIYNFPFDEDEISDEDYETNMYLRTLLPFAIIGSNEVYEMGGDVGTIRGRKYPWGILDVEDSSISDFVILRNALLISHLHDLKNYTHEILYERYRTEALSGESVAAESIRPNLTKLNGSSSSSTTTRRNTNPFKQSNNINNDVLNPASDMHGQSTGENNETYMTREEQIRLEEERLKAFEERVQQELLLKRQELLQREKELREIEARLEKEAKIKQEE
modifications: biotinylated with BG-Biotin (on the SNAP tag)
Molecule B2 gave a dissociation constant Kd in the experiment with 6His-Cdc24_(428-854) [1] of 257 nM. In addition, the binding result (in experiment [2]; with Cdc24_(428-854) _(K525E); in experiment [3]) was “binds” each time.

B3: GST-Cdc11 (natural protein)
chain: MSGIIDASSALRKRKHLKRGITFTVMIVGQSGSGRSTFINTLCGQQVVDTSTTILLPTDTSTEIDLQLREETVELEDDEGVKIQLNIIDTPGFGDSLDNSPSFEIISDYIRHQYDEILLEESRVRRNPRFKDGRVHCCLYLINPTGHGLKEIDVEFIRQLGSLVNIIPVISKSDSLTRDELKLNKKLIMEDIDRWNLPIYNFPFDEDEISDEDYETNMYLRTLLPFAIIGSNEVYEMGGDVGTIRGRKYPWGILDVEDSSISDFVILRNALLISHLHDLKNYTHEILYERYRTEALSGESVAAESIRPNLTKLNGSSSSSTTTRRNTNPFKQSNNINNDVLNPASDMHGQSTGENNETYMTREEQIRLEEERLKAFEERVQQELLLKRQELLQREKELREIEARLEKEAKIKQEE
Consider B3, for which the binding result with 6His-Cdc24_(428-854) [4] is on record as “binds”.

The Kd is the constant that tells how readily two partners part at equilibrium.

These data come from doi:10.1101/719815 (bioRxiv, 2019).
